Experimental data as given in paper PMC7712654, “Docking of acetyl-CoA carboxylase to the plastid envelope membrane attenuates fatty acid production in plants” (Nature Communications, 2020).

Molecular target: T1, α-CT coiled-coil domain fused with HIS tag (α-CT-His), fluorescently labeled (Arabidopsis thaliana, fluorescently labeled using His-tag labeling kit (NanoTemper, MO-L008))
T1 construct: α-carboxyltransferase (α-CT), Arabidopsis thaliana, At2g38040, C-terminus / coiled-coil domain; also called C-terminus of α-CT; labeled α-CT coiled-coil domain; source: expressed in Luria Broth with IPTG (pET30a), purified on nickel agarose resin
Assay: MST; 100 nM α-CT-His labeled with His-tag labeling kit, mixed with serial dilutions of CTI in PBS buffer; 100% LED power, high MST power, NanoTemper Monolith NT.115
Settings: both partners purified

B1: coiled-coil domain of CTI1 fused with HIS tag (domain or fragment)
chain: PQISKAIAGADRKDLMRKLPKFIYDEEKALEKTRKVLAEKIAQLNSAIDDVSSQLKSEDTPNGAALSTDEIEATA
fold higher affinity than CTI2 (from KD values): 100 fold
fold higher affinity than CTI3 (from KD values): 10 fold
